According to patent publication US5786191A, “Cloning and expression of complementary DNAs for multiple members of the human cytochrome P450 2C subfamily” (priority 1994, dated 1998):

Assays:
Type in all cases: biochemical
[1] = Mephenytoin 4'-hydroxylase assay, purified recombinant P450s in reconstituted system, R-enantiomer; details: triplicate, means ± SE, blank not subtracted
Procedure: (§1) Purified or recombinant yeast microsomes (10-50 pmol) were preincubated with dilauroylphosphatidylcholine (15 μg per 50 pmol P450), P450 reductase (500 U per 50 mol P450), and human cytochrome b5 (2:1 molar ratio when added). The reconstituted mixture was preincubated for 5 min at 37° C., and then placed on ice. […] The mixture was then incubated at 37° with shaking for 3 min, and the reaction started with the addition of 2 mM NADPH and terminated after 30 min with an equal volume of methanol. […] Reaction volumes were generally 0.25 ml except when the volume of recombinant purified cytochrome or yeast microsomes was greater than 50 μl. In these cases, the volume was increased to 0.5 ml to limit the volume of glycerol from the purified preparation to <4% of the final volume.
(§2) At the end of the incubation period, the reactions were terminated with an equal volume of methanol. The incubation mixture was centrifuged at 10,000 g for 10 min and an aliquot assayed directly using HPLC without extraction. Samples with particularly low activity were concentrated by lyophilization and redissolved in a small volume of methanol:water (1:1) before assay. The HPLC system consisted of a reverse phase C18 (10 μm) Versapak, 300 mm×4.1 mm column (Altech Associates, Deerfield, Ill.) using an isocratic solvent consisting of methanol:water (45:55) with a flow rate was kept of 1 ml/min for 25 min.

[2] = Mephenytoin 4'-hydroxylase assay, purified recombinant P450s in reconstituted system, S-enantiomer; details: for R/S Ratio of mephenytoin 4'-hydroxylase activity: purified P450s (Table IV); for Mephenytoin 4'-Hydroxylase Activity, S: purified P450s, triplicate, means ± SE, blank not subtracted
Procedure: as §1, §2

[3] = Mephenytoin 4'-hydroxylase assay, recombinant human CYP2C yeast microsomes, R-enantiomer; details: yeast microsomes + P450 reductase, phospholipid, cytochrome b5 2:1; 0.4 mM substrate; 37° C., 30 min; liver microsomes unfortified, phosphate buffer; means ± SE
Procedure: as §1, §2

[4] = Mephenytoin 4'-hydroxylase assay, recombinant human CYP2C yeast microsomes, S-enantiomer; details: for R/S Ratio of mephenytoin 4'-hydroxylase activity: recombinant yeast microsomes (Table III); for Mephenytoin 4'-Hydroxylase Activity, S: yeast microsomes + P450 reductase, phospholipid, cytochrome b5 2:1, 37° C., 30 min, liver microsomes unfortified, phosphate buffer
Procedure: as §1, §2

[5] = Tolbutamide hydroxylase assay, recombinant human CYP2C yeast microsomes; details: means ± SE; for Tolbutamide Hydroxylase Activity per mg protein: 1 mg yeast microsomal protein + P450 reductase, or 0.2 mg liver microsomal protein without reductase
Procedure: Yeast microsomes (1 mg protein) were preincubated with 300 pmol hamster P450 reductase in 0.2 ml of the incubation buffer (below) for 3 min at 37° C. The reaction was then placed on ice and incubated in 0.2 ml of 50 mM HEPES buffer (pH 7.4) containing 1.5 mM MgCl2, 0.1 mM EDTA in a final volume of 1 ml and 1 mM sodium tolbutamide. The reaction was initiated with 0.5 mM NADPH. Human liver microsomes (0.22 mg protein) were incubated without reductase. Incubations with reconstituted recombinant P450s contained 50 pmol purified P450 enzyme, 150 pmol P450 reductase, and 15 μg dilauroylphosphatidylcholine, and were performed in 100 mM potassium phosphate buffer (pH 7.4). Reactions were terminated after 60 min at 37° C. by the addition of 50 μl of 4N HCl, followed by extraction with 3 ml of water-saturated ethyl acetate. […] The column eluate was monitored at 230 nm and rates of product formation were determined from standard curves prepared by adding varying amounts of 4-hydroxytolbutamide to incubations conducted without NADPH. […] Samples were analyzed in triplicate.

[6] = Tolbutamide hydroxylase assay, purified reconstituted P450s; details: blank (22 ± 5) subtracted, means ± SE
Procedure: Tolbutamide hydroxylase activity was measured according to Knodell et al., J. Pharmacol. Exper. Ther. 241:1112-1119 (1987), with several modifications. Yeast microsomes (1 mg protein) were preincubated with 300 pmol hamster P450 reductase in 0.2 ml of the incubation buffer (below) for 3 min at 37° C. The reaction was then placed on ice and incubated in 0.2 ml of 50 mM HEPES buffer (pH 7.4) containing 1.5 mM MgCl2, 0.1 mM EDTA in a final volume of 1 ml and 1 mM sodium tolbutamide. The reaction was initiated with 0.5 mM NADPH. Human liver microsomes (0.22 mg protein) were incubated without reductase. Incubations with reconstituted recombinant P450s contained 50 pmol purified P450 enzyme, 150 pmol P450 reductase, and 15 μg dilauroylphosphatidylcholine, and were performed in 100 mM potassium phosphate buffer (pH 7.4). Reactions were terminated after 60 min at 37° C. by the addition of 50 μl of 4N HCl, followed by extraction with 3 ml of water-saturated ethyl acetate. The ethyl acetate extracts were dried under nitrogen at 40° C., the residue resolubilized in 200 μl methanol, and 4-hydroxytolbutamide then assayed using HPLC by injecting 50 μl of the solubilized extract onto a μBONDAPAK C18 column (4.6×300 mm) using 0.05% phosphoric acid, pH 2.6: acetonitrile (6:4, v/v) as the mobile phase with a flow rate of 1 ml/min. The column eluate was monitored at 230 nm and rates of product formation were determined from standard curves prepared by adding varying amounts of 4-hydroxytolbutamide to incubations conducted without NADPH. […] Samples were analyzed in triplicate.

Molecule | Mephenytoin 4'-Hydroxylase Activity, R [1] | R/S Ratio of mephenytoin 4'-hydroxylase activity [2] | Mephenytoin 4'-Hydroxylase Activity, S ([2]; reconstituted system) | Mephenytoin 4'-Hydroxylase Activity, R [3] | R/S Ratio of mephenytoin 4'-hydroxylase activity [4] | Mephenytoin 4'-Hydroxylase Activity, S ([4]; 0.4 mM substrate, means ± SE) | Tolbutamide Hydroxylase Activity per mg protein [5] | other results
2C8 Purified from Human Liver: cytochrome P450 2C8 purified from human liver microsomes (protein, UniProt P10632 1-490, looked up) Cytochrome P450 2C8: MEPFVVLVLCLSFMLLFSLWRQSCRRRKLPPGPTPLPIIGNMLQIDVKDICKSFTNFSKVYGPVFTVYFGMNPIVVFHGYEAVKEALIDNGEEFSGRGNSPISQRITKGLGIISSNGKRWKEIRRFSLTTLRNFGMGKRSIEDRVQEEAHCLVEELRKTKASPCDPTFILGCAPCNVICSVVFQKRFDYKDQNFLTLMKRFNENFRILNSPWIQVCNNFPLLIDCFPGTHNKVLKNVALTRSYIREKVKEHQASLDVNNPRDFIDCFLIKMEQEKDNQKSEFNIENLVGTVADLFVAGTETTSTTLRYGLLLLLKHPEVTAKVQEEIDHVIGRHRSPCMQDRSHMPYTDAVVHEIQRYSDLVPTGVPHAVTTDTKFRNYLIPKGTTIMALLTSVLHDDKEFPNPNIFDPGHFLDKNGNFKKSDYFMPFSAGKRICAGEGLARMELFLFLTTILQNFNLKSVDDLKNLNTTAVTKGIVSLPPSYQICFIPV | 0.051 ± 0.030 nmol/min/nmol P450 | 1.6 | 0.032 ± 0.003 nmol/min/nmol P450 |  |  |  |  | 
2C18-Thr^385 (29c): recombinant 2C18 allelic variant 29c (Thr 385) in yeast microsomes; Table III does not state residue 2 (protein, UniProt P33260 26-490, looked up) Cytochrome P450 2C18: RGRLPSGPTPLPIIGNILQLDVKDMSKSLTNFSKVYGPVFTVYFGLKPIVVLHGYEAVKEALIDHGEEFSGRGSFPVAEKVNKGLGILFSNGKRWKEIRRFCLMTLRNFGMGKRSIEDRVQEEARCLVEELRKTNASPCDPTFILGCAPCNVICSVIFHDRFDYKDQRFLNLMEKFNENLRILSSPWIQVCNNFPALIDYLPGSHNKIAENFAYIKSYVLERIKEHQESLDMNSARDFIDCFLIKMEQEKHNQQSEFTVESLIATVTDMFGAGTETTSTTLRYGLLLLLKYPEVTAKVQEEIECVVGRNRSPCMQDRSHMPYTDAVVHEIQRYIDLLPTNLPHAVTCDVKFKNYLIPKGTTIITSLTSVLHNDKEFPNPEMFDPGHFLDKSGNFKKSDYFMPFSAGKRMCMGEGLARMELFLFLTTILQNFNLKSQVDPKDIDITPIANAFGRVPPLYQLCFIPV |  |  |  | 0.054 ± 0.003 nmol/min/nmol P450 | 1.3 | 0.042 ± 0.004 nmol/min/nmol P450 |  | Mephenytoin 4'-Hydroxylase Activity, S, no b5 ([4]; yeast microsomes without cytochrome b5, 0.4 mM substrate, means ± SE): 0.034 ± 0.008 nmol/min/nmol P450
2C18-Asp^2 Thr^385 (29c-1a): recombinant human P450 2C18 allelic variant 29c with correct Asp at position 2, Thr at 385 (protein, UniProt P33260 26-490, looked up) Cytochrome P450 2C18: RGRLPSGPTPLPIIGNILQLDVKDMSKSLTNFSKVYGPVFTVYFGLKPIVVLHGYEAVKEALIDHGEEFSGRGSFPVAEKVNKGLGILFSNGKRWKEIRRFCLMTLRNFGMGKRSIEDRVQEEARCLVEELRKTNASPCDPTFILGCAPCNVICSVIFHDRFDYKDQRFLNLMEKFNENLRILSSPWIQVCNNFPALIDYLPGSHNKIAENFAYIKSYVLERIKEHQESLDMNSARDFIDCFLIKMEQEKHNQQSEFTVESLIATVTDMFGAGTETTSTTLRYGLLLLLKYPEVTAKVQEEIECVVGRNRSPCMQDRSHMPYTDAVVHEIQRYIDLLPTNLPHAVTCDVKFKNYLIPKGTTIITSLTSVLHNDKEFPNPEMFDPGHFLDKSGNFKKSDYFMPFSAGKRMCMGEGLARMELFLFLTTILQNFNLKSQVDPKDIDITPIANAFGRVPPLYQLCFIPV | 0.147 ± 0.025 nmol/min/nmol P450 | 1.3 | 0.116 ± 0.010 nmol/min/nmol P450 |  |  |  | 9.3 ± 0.7 nmol/min/mg protein | Tolbutamide Hydroxylase Activity per nmol P450 ([5]; adjusted for P450 content): 0.19 ± 0.02 nmol/min/nmol P450
2C9: recombinant human P450 2C9, allele not specified in the sentence (protein, UniProt P11712 1-490, looked up) Cytochrome P450 2C9: MDSLVVLVLCLSCLLLLSLWRQSSGRGKLPPGPTPLPVIGNILQIGIKDISKSLTNLSKVYGPVFTLYFGLKPIVVLHGYEAVKEALIDLGEEFSGRGIFPLAERANRGFGIVFSNGKKWKEIRRFSLMTLRNFGMGKRSIEDRVQEEARCLVEELRKTKASPCDPTFILGCAPCNVICSIIFHKRFDYKDQQFLNLMEKLNENIKILSSPWIQICNNFSPIIDYFPGTHNKLLKNVAFMKSYILEKVKEHQESMDMNNPQDFIDCFLMKMEKEKHNQPSEFTIESLENTAVDLFGAGTETTSTTLRYALLLLLKHPEVTAKVQEEIERVIGRNRSPCMQDRSHMPYTDAVVHEVQRYIDLLPTSLPHAVTCDIKFRNYLIPKGTTILISLTSVLHDNKEFPNPEMFDPHHFLDEGGNFKKSKYFMPFSAGKRICVGEALAGMELFLFLTSILQNFNLKSLVDPKNLDTTPVVNGFASVPPFYQLCFIPV |  |  |  |  |  | 0.02 nmol/min/nmol P450 |  | Turnover number of recombinant 2C9 relative to 2C9 purified from human liver ([2]; S-mephenytoin 4'-hydroxylation): ~ 100 times
2C9 Purified from Human Liver: cytochrome P450 2C9 purified from human liver microsomes (protein, UniProt P11712 1-490, looked up) Cytochrome P450 2C9: MDSLVVLVLCLSCLLLLSLWRQSSGRGKLPPGPTPLPVIGNILQIGIKDISKSLTNLSKVYGPVFTLYFGLKPIVVLHGYEAVKEALIDLGEEFSGRGIFPLAERANRGFGIVFSNGKKWKEIRRFSLMTLRNFGMGKRSIEDRVQEEARCLVEELRKTKASPCDPTFILGCAPCNVICSIIFHKRFDYKDQQFLNLMEKLNENIKILSSPWIQICNNFSPIIDYFPGTHNKLLKNVAFMKSYILEKVKEHQESMDMNNPQDFIDCFLMKMEKEKHNQPSEFTIESLENTAVDLFGAGTETTSTTLRYALLLLLKHPEVTAKVQEEIERVIGRNRSPCMQDRSHMPYTDAVVHEVQRYIDLLPTSLPHAVTCDIKFRNYLIPKGTTILISLTSVLHDNKEFPNPEMFDPHHFLDEGGNFKKSKYFMPFSAGKRICVGEALAGMELFLFLTSILQNFNLKSLVDPKNLDTTPVVNGFASVPPFYQLCFIPV | 0.051 ± 0.007 nmol/min/nmol P450 | 1.6 | 0.033 ± 0.001 nmol/min/nmol P450 |  |  |  |  | Tolbutamide Hydroxylase Activity [6]: 109 ± 16 pmol/min/nmol P450
2C19: human cytochrome P450 2C19 polypeptide, clone 11a, SEQ ID NO:1, expressed recombinantly in yeast (protein) MDPFVVLVLCLSCLLLLSIWRQSSGRGKLPPGPTPLPVIGNILQIDIKDVSKSLTNLSKIYGPVFTLYFGLERMVVLHGYEVVKEALIDLGEEFSGRGHFPLAERANRGFGIVFSNGKRWKEIRRFSLMTLRNFGMGKRSIEDRVQEEARCLVEELRKTKASPCDPTFILGCAPCNVICSIIFQKRFDYKDQQFLNLMEKLNENIRIVSTPWIQICNNFPTIIDYFPGTHNKLLKNLAFMESDILEKVKEHQESMDINNPRDFIDCFLIKMEKEKQNQQSEFTIENLVITAADLLGAGTETTSTTLRYALLLLLKHPEVTAKVQEEIERVIGRNRSPCMQDRGHMPYTDAVVHEVQRYIDLIPTSLPHAVTCDVKFRNYLIPKGTTILTSLTSVLHDNKEFPNPEMFDPRHFLDEGGNFKKSNYFMPFSAGKRICVGEGLARMELFLFLTFILQNFNLKSLIDPKDLDTTPVVNGFASVPPFYQLCFIPV | 0.19 ± 0.04 nmol/min/nmol P450 | 0.03 | 6.17 ± 0.24 nmol/min/nmol P450 | 0.014 ± 0.02 nmol/min/nmol P450 | 0.03 | ~ 5 nmol/min/nmol P450 | 18.4 ± 2.4 nmol/min/mg protein | Rate of S-hydroxylation relative to R-hydroxylation of mephenytoin ([4]; stereospecificity, yeast microsomes): at least 30 fold; Mephenytoin 4'-Hydroxylase Activity, S ([4]; 0.4 mM substrate, means ± SE, listed as 2C19 (11a)): 4.6 ± 0.3 nmol/min/nmol P450; S-mephenytoin 4'-hydroxylation turnover relative to human liver microsomes ([2]; fold higher than human liver microsomes): at least 10 times; S-mephenytoin 4'-hydroxylation turnover relative to recombinant 2C9, 2C18 or 2C8 ([2]; purified, reconstituted system): 50-100 times; S-mephenytoin 4'-hydroxylase turnover relative to P450MP purified from human liver ([2]; vs literature value of Srivastava et al.): ~ 30 times
